Molecular target: SARS-CoV-2 S1蛋白 (ACRO Biosystems) (SARS-CoV-2) (UniProt P0DTC2)
Experiment: BLI, biotinylated SARS-CoV-2 S1 on SA sensor, 1:1 fit

针对SARS-CoV和SARS-CoV-2S1的人源抗体CR3022 (antibody)
Kd: 0.0866 nM
koff: 1.9e-05 s⁻¹
kon: 220000 M⁻¹ s⁻¹

Reference: CN114106161A
